The values that follow come from patent US20250042970A1.

For assay [1], the target named is human APRIL (Examples 21-23) (human) (UniProt O75888). Description: assay not given (Example 21).
In assay [2] the target is human BAFF (Examples 21-23) (human) (UniProt Q9Y275). The assay is described as follows: assay not given (Example 21).

Chain of human APRIL (Examples 21-23) (human) (O75888 105-250 limits assumed): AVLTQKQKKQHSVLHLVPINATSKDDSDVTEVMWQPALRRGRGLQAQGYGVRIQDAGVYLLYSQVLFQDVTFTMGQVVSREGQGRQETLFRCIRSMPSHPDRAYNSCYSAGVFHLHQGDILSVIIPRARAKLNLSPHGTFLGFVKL

B1: BION-1301 (antibody, INN chains, looked up, V domains shown)
VH: QVQLVQSGAEVKKPGASVKVSCKASGYTFTDYTIHWVRQATGQGLEWMGWIYPLRGSINYAQKFQGRVTMTADKSISTVYMELSSLRSEDTAVYFCARHGAYYSNAFDYWGQGTLVTVSS
VL: EIVMTQSPATLSVSPGERATLSCRASESVDNDGIRFLHWYQQKPGQAPRLLIYRASTRATGIPARFSGSGSRTEFTLTISSLQSEDFAVYYCQQSNKDPYTFGGGTKVEIK
In the case of B1, the Kd in assay [1] was 0.4 nM.

B2: Benlysta (antibody, INN chains, looked up, V domains shown)
VH: QVQLQQSGAEVKKPGSSVRVSCKASGGTFNNNAINWVRQAPGQGLEWMGGIIPMFGTAKYSQNFQGRVAITADESTGTASMELSSLRSEDTAVYYCARSRDLLLFPHHALSPWGRGTMVTVSS
VL: SSELTQDPAVSVALGQTVRVTCQGDSLRSYYASWYQQKPGQAPVLVIYGKNNRPSGIPDRFSGSSSGNTASLTITGAQAEDEADYYCSSRDSSGNHWVFGGGTELTVLG
Molecule B2 came in with a Kd in assay [2] of 0.0023 nM.
